The values below come from patent US20070134236A1 (Biogen, published 2007).

For experiment [1], the target named is T1, human MCP-2 (human, UniProt P80075 24-99).
T1 construct: also called hMCP-2; huMCP-2
T1 sequence (looked up): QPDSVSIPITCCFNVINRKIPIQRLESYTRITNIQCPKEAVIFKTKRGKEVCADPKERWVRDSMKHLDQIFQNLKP
The experiment is described as follows: KinExA, in solution, Fab. As to the method:
(§1) 1 ml of MCP-1 at a concentration of 10 μg/ml in NaHCO₃ was added to an amount of beads equivalent to 1 ml of the original slurry. The beads were rocked overnight at 4° C. Beads were spun down and washed once with 1M Tris, pH 8.0, then resuspended in 1M Tris pH 8.0 with 1% BSA, 0.02% azide. The beads were rocked at room temperature for one hour then stored at 4° C. in this buffer for the duration of the experiments.
(§2) The KinExA 3000 measures protein-protein interaction in solution, and is ideally suited for measuring affinities of antibodies to antigens. In the typical experiment, antigen (MCP) is immobilized on a bead, antibody is flowed over a column of these beads at a given concentration, and the antibody that binds to the beads is detected using a fluorescent secondary. Antibody at a fixed concentration is then incubated with different concentrations of antigen in solution and the amount of free antibody is measured by flowing the mixture over the bead column quickly enough that no re-equilibration occurs between solution and solid phase. The amount of antibody remaining free is plotted against the concentration of antigen added and the data are fit to a quadratic equation to determine the affinity of the interaction in solution.
In these experiments, the only difference to the typical experiment described above is that instead of using intact antibody, a Fab fragment of 11K2 was used. Earlier KimExA experiments using the intact murine 11K2 mAb binding to MCP-1 and MCP-2 gave biphasic curves that the software could not interpret. This may be due to these proteins acting as dimers, so to eliminate the dimer/dimer interaction we generated Fab fragments. The binding of the 11K2 Fab fragments to MCP-1 and MCP-2 produced curves that the KinExA software could fit.
Background: In KinExA the mixture passes briefly over coated beads that capture the unbound partner.

Experiment [2] concerns the target T2, human MCP-1 (human, UniProt P13500 24-99).
T2 construct: also called hMCP-1; huMCP-1
The experiment is described as follows: KinExA, in solution. Here is the method: (§3) Polymethylmethacrylate beads activated with NHS were coated with 10 μg recombinant human MCP-1 in 1 ml buffer. The beads were packed into a column in the KinExA instrument for each sample. This packed bead column is able to capture free MCP mAb or Fab flowed through the column. The amount of free mAb or Fab in solution was determined using a secondary goat anti-mouse heavy and light chain IgG-Cy5 conjugate.
(§4) A fixed amount of 11K2 mAb, 1A1 mAb, 11K2 Fab, or 1A1 Fab was incubated with various amounts of human MCP-1, MCP-2 or MCP-3 for three hours. The amount of uncomplexed free antibody remaining in solution was determined by flowing these mixtures over the MCP-1-loaded bead column and labeling with the Cy5 secondary antibody. The fluorescent signal was plotted against the MCP concentration and the affinity was determined using a quadratic curve fit

Experiment [3] concerns the target T1, human MCP-2. Description: KinExA, in solution. As to the method: as §3, §4
Experiment [4] concerns the target T2, human MCP-1. The experiment is described as follows: KinExA, in solution, Fab; Fab, not intact mAb. As to the method:
as §1
as §2, with “solution. […]” for “solution.”

B1: Fab fragment of murine 11K2 (Fab, V domains shown)
VH: EVQLQQSGAELVKAGASVKLSCPASGLNIKDTYMHWVKQRPEQGLEWIGRIDPANGNTKFDPKFQGKATITADTSSNTAYLQLSSLTSEDTAVYYCARGVFGFFDYWGQGTTLTVSS
VL: DIQMTQSSSSFSVSLGDRVTITCKATEDIYNRLAWYQQKPGSAPRLLISGATSLETGVPSRFSGSGSGKDYTLSITSLQTEDVATYYCQQFWSAPYTFGGGTKLEIK
notes: also called 11K2 Fab; mu11K2 Fab
B1: the Kd came out at 0.43 nM in the experiment with human MCP-2 [1], 0.011 nM with human MCP-1 [2], 0.43 nM with human MCP-2 [3] and 0.011 nM with human MCP-1 [4].

For orientation: Kd means the concentration at which binding is half-saturated.
